The results in this text go back to patent US20240043859A1, “HERBICIDE-RESISTANT PROTEIN, AND GENE AND USE THEREOF” (QINGDAO KINGAGROOT CHEMICAL COMPOUND CO., LTD., priority 2020, published 2024).

Changes are numbered by the printed parent chain. “Also recorded” adds a separate entry of the source.

One data set has as its system Arabidopsis thaliana. Description: Herbicide resistance of transgenic Arabidopsis thaliana seedlings on plate medium (root growth). Particulars: Arabidopsis overexpressing the gene. It counts as in vivo. The protocol: Expression in Arabidopsis thaliana was regulated by its AtUbi10 Arabidopsis thaliana ubiquitin promoter and the MAS (mannopine synthase) terminator. Hygromycin resistance gene (HygR=hpt) served as the selection marker.
Preparation of Agrobacterium infection solution: An activated Agrobacterium (GV3101) monoclone was picked and inoculated in 30 ml YEP liquid medium [yeast powder 10 g/L, tryptone 10 g/L, NaCl 5 g/L, 25 mg/L Rifampicin and 50 mg/L Kanamycin], shaking-cultured at 200 rmp/min, 28° C. overnight until the OD600 was about 1.0-1.5, then centrifuged at 6000 rmp/min for 10 min to collect the bacteria, and the supernatant was discarded. Arabidopsis thaliana infection solution (sucrose 50 g/L, Silwet L-77 300 μL/L, no need to adjust pH) was used to resuspend the cells to OD600=0.8 for later use.
Genetic transformation of Arabidopsis thaliana by flower dipping: Before transformation of Arabidopsis thaliana plants, attentions were paid to whether the plants were growing well, the inflorescences were abundant, and no stress response occurred. The first transformation was performed when plants were about 20 cm high. Plants could be properly watered if the soil was dry. The grown siliques were cut off with scissors the day before transformation. The inflorescences of the plants to be transformed were soaked in the above-mentioned Agrobacterium solution for 30 seconds to 1 minute, which was stirred gently during the period. And a layer of liquid film should appear on the infiltrated plant. The transformed plants were cultured in a dark environment for 24 hours, and then taken out and grown in a normal light environment. A second transformation could be performed in the same way a week later.
Seeds were treated with disinfectant for 5 min, washed with sterile water for 5 times and then one part was spread on MS transgenic screening medium (containing 30 μg/mL hygromycin, 100 μg/mL carbenicillin) to screen transgenic seedlings, and the other part was spread on MS medicated medium [containing 250 μg/mL Cefotaxime sodium and 0.3 μM 2,4-D] to screen herbicide-resistant seedlings at mean time. The petri dish spread with seeds was placed at 4° C. for vernalization for 3 days, and taken out to a illumination incubator for cultivation (temperature of 22° C., 16 hours of light, 8 hours of darkness, light intensity of 100-150 μmol/m^2/s, humidity of 75%). After one week, it was observed that the roots of the wild-type control seedlings were not elongated and their growth was inhibited, while the transgenic seedlings had normal root growth, showing drug resistance. The transgenic positive seedlings and herbicide-resistant seedlings were photographed and transplanted into small pots filled with soil for cultivation.
The transgenic lines with the nine vectors, pQY2309, pQY2310, pQY2311, pQY2312, pQY2313, pQY2314, pQY2315, pQY2316 and pQY2317, overexpressing AAD gene in the T2 generation were further tested on plate medium for their resistance to 2,4-D, 2,4-DB sodium and MCPA herbicide. Two events were tested for each transformant.

Data set [1] can be described thus: Chromogenic reaction of degrading herbicides in bacteria: 2,4-D. It counts as cell-based, Escherichia coli. Conditions: recombinant E. coli expressing the gene, 2,4-D added to the medium, red = phenols. The protocol: (§1) To transform the plasmids to be tested, an AAD12-expressing plasmid and a blank control plasmid pET15b were respectively transformed into the protein expression E. coli BL21(DE3) strains. A monoclone was selected and inoculated in a 10 ml centrifuge tube with 3 ml LB medium, and cultivated at 37° C., 200 rpm for 6-8 hours. The culture medium was added with 0.1 mM IPTG and 2 mM α-ketoglutaric acid, and then 0.5 mM 2,4-D. The temperature was switched to 28° C. and the cultivation continued overnight. In the next morning, 200 μL of each bacteria solution was taken and centrifuged to precipitate thallus, 180 μL of the supernatant was taken and added in a 96-well plate, and 20 μL of borate buffer of pH 10 was added. Then the mixture was added with 2 μL of 8% potassium ferricyanide and mixed well, followed by adding 2 μL of 2% 4-aminoantipyrine, and placed at room temperature for 5 min to observe the color and detect the A510 value.
The bacteria solution also appeared red when 2,4-D was directly added into the medium of AAD12-expressing bacteria, as shown in FIG. 1.
2,4-D was added into these bacteria solutions of AAD gene-expressing recombinant E. coli and cultivation was continued for color development.

Data set [2] is classed as cell-based, Escherichia coli. The protocol: as §1, with “The culture medium was added with 0.1 mM IPTG and 2 mM α-ketoglutaric acid, and then 0.5 mM 2,4-D.” left out, “value. […]” for “value.”

B1: QYD31: AAD-like candidate enzyme, SEQ ID NO. 61 (protein)
chain: MKVEHLTEATFGSVVTDIDLETIDDAEWRELYDLWIERALLVFPGAFLSAEGQDAFARRFGDLEFSRAALSNIGKDGKVHHENDDEVVKSLRGNEGWHIDSTYMPVQAKGAVFSAEIVPSSGAATGWADMRSAYEELDAETRERLADLTAYHSLYYSQGRAGNLPDEPNEDGTYNLYGYHDMEVSLRPLIKIHPITERPSLLIGRHAHDIVGMDPAESESLLDDLNDWACQPPRTYHHQWDVGDAVLWDNRRLQHRGTPFDMTEPRRMWHTRIAGDPSSELALNHHPDTVPSDDVERHPTGTWAC
modifications: Synthetic polypeptide, QYD31, D31
Turning to B1, the “Resistance of transgenic Arabidopsis thaliana: 2,4-D” value (“Resistance” below) in the data set with Arabidopsis thaliana was “Yes”.

B2: QYD14: AAD-like candidate enzyme, SEQ ID NO. 27 (protein)
chain: MTTTKTKSFITIKNKRFHYIWLRENCPSCRYAAPYQQLYDPNISDRPEYPQPLSVELNEETLTIDWDETPAHRSVFSVEWLLKNSYDPQPELESDNYIFWERAKLELKPPQTYNAETINNDGWMEQLFSLGFVILENIPPEKLESFLSSIGPIFNADYGTIMPLETRDKTTESLPSRDGCPLPPHHDLSYWGGHRLVEFLYCVENQNSGGESTLVDGFQVAQDFSQDYPQYYQTLLETPVQFWLVDKTHQYRFCNIATILECDRYGNLTTVRFSKRNCRPHLPFEQLEDFYQAYHTFFHYLKKNDYKHQFQLRSHNCLLFQNFRILHGRTAFDPALGKRKLNSGYVDWNFFVGRRNFQ
modifications: Synthetic polypeptide, QYD14, D14
For B2, the “Resistance” value in the data set with Arabidopsis thaliana is recorded as “Yes”.

B3: QYD75: AAD-like enzyme, SEQ ID NO. 149 (protein)
chain: MPSFNIAPIDASFGAVVTGIRLATVDDERWRELHQAWLEHALLIFPGQHLSRDEQISFARRFGPLEFDMAAISNVKSDGTLRIEADNDDVVKILKGNMGWHADSTYMSVQAKGAVFSAEVVPAAGGQTGFADMRAAYDALDDGLRTKVETLAAHHSLHYSQAKLGHQPEAGSAYSGYGFHAGPVPLRPLVKTHPETGRKSLLIGRHAHNIPGLDPDESERLLDELVDFACQAPRVYHHSWSAGDVVIWDNRCLLHRATPWDMTQPRVMWHSRIAGDPVAEASLN
modifications: Synthetic polypeptide, QYD75, D75
With B3, the “Chromogenic reaction of degrading herbicides in bacteria: 2,4-D” value (from here on “Chromogenic reaction … 2,4-D”) in data set [1] is given as “Yes”; in data set [1] (listed as D75), “could degrade 2,4-D; also recorded: capable of degrading 2,4-D”. Further, the “Chromogenic reaction of degrading herbicides in bacteria: MCPA” value in data set [2] is given as “Yes”.

B4: QYD1: AAD-like candidate enzyme; 100.00% identical to US20170022515-0011 (AAD1) (protein)
chain: MAHAALSPLSQRFERIAVQPLTGVLGAEITGVDLREPLDDSTWNEILDAFHTYQVIYFPGQAITNEQHIAFSRRFGPVDPVPLLKSIEGYPEVQMIRREANESGRVIGDDWHTDSTFLDAPPAAVVMRAIDVPEHGGDTGFLSMYTAWETLSPTMQATIEGLNVVHSATRVFGSLYQAQNRRFSNTSVKVMDVDAGDRETVHPLVVTHPGSGRKGLYVNQVYCQRIEGMTDAESKPLLQFLYEHATRFDFTCRVRWKKDQVLVWDNLCTMHRAVPDYAGKFRYLTRTTVGGVRPAR
modifications: Synthetic polypeptide, QYD01, D1
On to B4, for which, in data set [1], the “Chromogenic reaction … 2,4-D” value is on record as “Yes”. Also, the “Resistance” value in the data set with Arabidopsis thaliana is reported as “Yes”.

B5: QYD3: AAD-like candidate enzyme; 100.00% identical to US20160002662-0002 (AAD13) (protein)
chain: MSPAFDIAPLDATFGAVVTGVKLADLDDAGWLDLQAAWLEYALLVFPDQHLTREQQIAFARRFGPLEFEMAAISNVRPDGSLRVESDNDDMMKILKGNMGWHADSTYMPVQAKGAVFSAEVVPSVGGQTGFADMRAAYDALDEDLKARVETLQARHSLHYSQSKLGHQTKAADGEYSGYGLHDGPVPLRPLVKIHPETGRKSLLIGRHAHAIPGLEPAESERLLQQLIDFACQPPRIYHHDWAPGDAVLWDNRCLLHQATPWDMTQKRIMWHSRIAGDPASETALAH
modifications: Synthetic polypeptide, QYD03, D3
Consider B5, for which, in data set [1], the “Chromogenic reaction … 2,4-D” value was “Yes”. Also, the “Resistance” value in the data set with Arabidopsis thaliana is given as “Yes”.

B6: QYD4: AAD-like candidate enzyme; 99.65% identical to US20100251432-0002 (AAD13 mutant) (protein)
chain: B5 chain with E69A
modifications: Synthetic polypeptide, QYD04, D4
Take B6: in data set [1], the “Chromogenic reaction … 2,4-D” value was “Yes”. Further, the “Resistance” value in the data set with Arabidopsis thaliana is listed as “Yes”.

B7: QYD5: AAD-like candidate enzyme, SEQ ID NO. 9 (protein)
chain: MPFAGELPSAIETQVSKILALIAAYRHRSPNVPDRFAQFVPELEKQLADTVSKKEPVRFVLPAFPFKAPVEGNKRKTLGSLPDKAEEIALKTLDGFADSIAEIYEAGATVVLVSDASVYGDLLNVADAEAFTYHQELQKLASSLGLEHLEFVRPGALAGIAPKDAHTLEEYSDHVNKTRNLLDGPLAQDVNPSEDENVQATSKHYDTALPTTDDPEAFKTAMLKRGKAYAKLIASSSETTIRLSIHESNNVGKITLDLFPPSTNPDFITPWHGAVAVLADASVRIVDASTVDMTKFEVITNAEGRPWLLREKSELFNWFGMELDFEPLFPCGMVVRPRNGYGPYKFEDVNMKQVRRLALSTAPLLLRGFTMEIEKEVFRQKARELGEIQMWPFGDILEVRENADFNMNNVLTREAMPFHYDGVFKTIQDEKTGEWISTPPLFQMFRNRAASQQKGGLTLFSSSRNLIPLLGPDSIPLDELRKLKWKTFTVVNEAFGGHELLLPFIASHPETGADTFRFHEPWPESKCISGSSEPTIVQVVGWPAAESDALCAKLTDLLYDRRVAYRHQWTAGDFIFNDNATTHHTRTAFENGHREHWRVHVS
modifications: Synthetic polypeptide, QYD05, D5
In the case of B7, the “Resistance” value in the data set on Arabidopsis thaliana is “Yes”.

B8: QYD2: AAD-like candidate enzyme; 100.00% identical to US20170009214-0019 (AAD2) (protein)
chain: MTIAIRQLQTHFVGQVSGLDLRKPLTPGEAREVESAMDKYAVLVFHDQDITDEQQMAFALNFGQREDARGGTVTKEKDYRLQSGLNDVSNLGKDGKPLAKDSRTHLFNLGNCLWHSDSSFRPIPAKFSLLSARVVNPTGGNTEFADMRAAYDALDDETKAEIEDLVCEHSLMYSRGSLGFTEYTDEEKQMFKPVLQRLVRTHPVHRRKSLYLSSHAGKIASMSVPEGRLLLRDLNEHATQPEFVYVHKWKLHDLVMWDNRQTMHRVRRYDQSQPRDMRRATVAGTEPTV
modifications: Synthetic polypeptide, QYD02, D2
As for B8, in data set [1], the “Chromogenic reaction … 2,4-D” value is listed as “Yes”. Further, the “Resistance” value in the data set on Arabidopsis thaliana is reported as “Yes”.
